Measurements: PMC7545097, “Mapping the native interaction surfaces of PREP1 with PBX1 by cross-linking mass-spectrometry and mutagenesis” (Scientific Reports, 2020)

T1: PBX1 I204A (human, UniProt P40424 1-430, I204A)
T1 construct: PBX1, residues 1-430; source: E. coli, purified
T1 sequence (looked up): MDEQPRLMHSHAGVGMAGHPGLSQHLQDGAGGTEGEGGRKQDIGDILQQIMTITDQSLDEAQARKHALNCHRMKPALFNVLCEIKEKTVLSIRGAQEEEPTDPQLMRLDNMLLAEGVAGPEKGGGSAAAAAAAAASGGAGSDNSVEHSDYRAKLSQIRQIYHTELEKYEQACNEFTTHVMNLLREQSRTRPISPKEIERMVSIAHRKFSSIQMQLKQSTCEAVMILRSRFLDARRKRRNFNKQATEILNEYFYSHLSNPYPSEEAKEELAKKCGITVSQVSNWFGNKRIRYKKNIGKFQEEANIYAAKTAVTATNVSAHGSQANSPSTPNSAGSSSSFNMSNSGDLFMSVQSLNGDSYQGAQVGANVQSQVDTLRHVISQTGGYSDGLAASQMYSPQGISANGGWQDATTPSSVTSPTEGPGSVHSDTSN

T2: PREP1 L66A (UniProt P55347 1-436, L66A)
T2 construct: PREP1 (PKNOX1), residues 1-436
T2 sequence (looked up): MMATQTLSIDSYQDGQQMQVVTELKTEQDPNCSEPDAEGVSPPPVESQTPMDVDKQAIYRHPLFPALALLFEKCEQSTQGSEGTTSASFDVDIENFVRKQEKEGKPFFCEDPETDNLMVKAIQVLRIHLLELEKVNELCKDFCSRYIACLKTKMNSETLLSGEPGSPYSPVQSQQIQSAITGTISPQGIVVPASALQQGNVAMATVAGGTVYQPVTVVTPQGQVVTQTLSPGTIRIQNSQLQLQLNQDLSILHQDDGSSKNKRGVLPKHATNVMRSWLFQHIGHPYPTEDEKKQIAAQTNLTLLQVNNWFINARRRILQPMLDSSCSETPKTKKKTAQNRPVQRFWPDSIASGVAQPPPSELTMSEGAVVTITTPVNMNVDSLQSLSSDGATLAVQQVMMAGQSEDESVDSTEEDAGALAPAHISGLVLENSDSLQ

T3: PREP1 L69A (UniProt P55347 1-436, L69A)
T3 construct: PREP1 (PKNOX1), residues 1-436
T3 sequence (looked up): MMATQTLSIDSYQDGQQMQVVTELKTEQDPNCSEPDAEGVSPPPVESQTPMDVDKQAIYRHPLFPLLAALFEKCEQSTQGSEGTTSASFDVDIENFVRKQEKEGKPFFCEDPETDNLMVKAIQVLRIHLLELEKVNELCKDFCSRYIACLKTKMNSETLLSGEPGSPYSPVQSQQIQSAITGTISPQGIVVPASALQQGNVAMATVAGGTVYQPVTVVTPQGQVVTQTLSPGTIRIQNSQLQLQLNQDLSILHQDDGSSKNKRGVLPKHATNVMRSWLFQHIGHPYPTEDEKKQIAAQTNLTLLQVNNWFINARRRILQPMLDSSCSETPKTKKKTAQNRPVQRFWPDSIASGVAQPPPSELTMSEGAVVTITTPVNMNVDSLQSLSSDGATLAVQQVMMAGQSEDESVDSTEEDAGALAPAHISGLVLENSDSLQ


Legend:
Assay in all cases: time-resolved fluorescence immunoassay (TR-FIA); plate coated with monoclonal anti-PBX1; PBX1 pre-incubated with PREP1 or MEIS1 for 1 h on ice, 10 µg/mL in 1% BSA PBS, 1 h at room temperature on the plate; detected with anti-PREP1 or biotinylated anti-MEIS1/2 and Eu^3+ conjugates; normalised to the wild-type protein taken as 1
Details in all cases: both partners purified
PBX1 I204A = target: T1, PBX1 I204A
PREP1 L66A = target: T2, PREP1 L66A
PREP1 L69A = target: T3, PREP1 L69A

Binder | binding relative to wild type (PBX1 I204A) | binding result (PREP1 L66A) | binding result (PREP1 L69A)
PREP1_(1-436), wild-type recombinant (TR-FIA) (natural protein, UniProt P55347 1-436, looked up, also called wild-type PREP1; PKNOX1; source: E. coli, purified) MMATQTLSIDSYQDGQQMQVVTELKTEQDPNCSEPDAEGVSPPPVESQTPMDVDKQAIYRHPLFPLLALLFEKCEQSTQGSEGTTSASFDVDIENFVRKQEKEGKPFFCEDPETDNLMVKAIQVLRIHLLELEKVNELCKDFCSRYIACLKTKMNSETLLSGEPGSPYSPVQSQQIQSAITGTISPQGIVVPASALQQGNVAMATVAGGTVYQPVTVVTPQGQVVTQTLSPGTIRIQNSQLQLQLNQDLSILHQDDGSSKNKRGVLPKHATNVMRSWLFQHIGHPYPTEDEKKQIAAQTNLTLLQVNNWFINARRRILQPMLDSSCSETPKTKKKTAQNRPVQRFWPDSIASGVAQPPPSELTMSEGAVVTITTPVNMNVDSLQSLSSDGATLAVQQVMMAGQSEDESVDSTEEDAGALAPAHISGLVLENSDSLQ | ~65% | – | –
PBX1_(1-430), wild-type recombinant (natural protein, human, UniProt P40424 1-430, looked up, also called wild-type PBX1; purified recombinant human PBX1; source: E. coli, purified) MDEQPRLMHSHAGVGMAGHPGLSQHLQDGAGGTEGEGGRKQDIGDILQQIMTITDQSLDEAQARKHALNCHRMKPALFNVLCEIKEKTVLSIRGAQEEEPTDPQLMRLDNMLLAEGVAGPEKGGGSAAAAAAAAASGGAGSDNSVEHSDYRAKLSQIRQIYHTELEKYEQACNEFTTHVMNLLREQSRTRPISPKEIERMVSIIHRKFSSIQMQLKQSTCEAVMILRSRFLDARRKRRNFNKQATEILNEYFYSHLSNPYPSEEAKEELAKKCGITVSQVSNWFGNKRIRYKKNIGKFQEEANIYAAKTAVTATNVSAHGSQANSPSTPNSAGSSSSFNMSNSGDLFMSVQSLNGDSYQGAQVGANVQSQVDTLRHVISQTGGYSDGLAASQMYSPQGISANGGWQDATTPSSVTSPTEGPGSVHSDTSN | – | binds | binds
